Assay results as given in US20240301429A1 (RSEM LIMITED PARTNERSHIP, published 2024).

Target: T1, SEMA3A-FC (R&D systems) (Homo sapiens (Human), UniProt Q14563 22-771)
T1 construct: Bought reagent; not shown: Fc portion of the bought fusion, detected with anti-human IgG
T1 sequence: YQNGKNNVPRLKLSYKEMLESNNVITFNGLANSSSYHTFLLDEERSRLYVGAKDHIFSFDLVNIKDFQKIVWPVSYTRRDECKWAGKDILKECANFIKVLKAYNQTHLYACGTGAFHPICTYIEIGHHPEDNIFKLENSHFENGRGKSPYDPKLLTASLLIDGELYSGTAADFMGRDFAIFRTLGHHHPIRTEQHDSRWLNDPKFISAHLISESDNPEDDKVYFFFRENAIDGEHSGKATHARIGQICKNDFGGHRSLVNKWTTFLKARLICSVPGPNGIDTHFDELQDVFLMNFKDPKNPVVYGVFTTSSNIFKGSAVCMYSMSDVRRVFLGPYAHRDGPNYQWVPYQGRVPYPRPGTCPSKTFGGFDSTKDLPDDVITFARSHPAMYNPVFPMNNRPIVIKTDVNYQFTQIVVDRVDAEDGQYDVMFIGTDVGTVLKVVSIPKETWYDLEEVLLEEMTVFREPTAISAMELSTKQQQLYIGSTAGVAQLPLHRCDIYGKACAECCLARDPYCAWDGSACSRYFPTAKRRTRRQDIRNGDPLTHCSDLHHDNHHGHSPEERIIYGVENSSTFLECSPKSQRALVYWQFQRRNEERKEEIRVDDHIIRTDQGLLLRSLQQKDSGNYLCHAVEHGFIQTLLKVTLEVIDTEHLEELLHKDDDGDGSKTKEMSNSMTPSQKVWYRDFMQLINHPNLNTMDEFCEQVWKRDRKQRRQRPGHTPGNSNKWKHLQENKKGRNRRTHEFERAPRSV
Assay: saturation binding, trap coated on plate, SEMA3A-FC titrated, anti-human IgG-HRP chemiluminescence
Experimental: Sema 3A and AP-VEGF₁₆₅ binding assays. Saturation curves for the determinations of KD of binding to SEMA 3A or VEGF165 were obtained as follow. Wells of high protein binding 96 well plates (Maxisorp, Nunc) were coated with purified traps diluted in PBS and blocked afterward with binding buffer (PBS containing 2% casein and 0.05% Tween 20). The SEMA3A-FC (R&D systems) or AP-VEGF165 ligands were diluted in binding buffer over an extensive range of concentrations and added to wells. Following an overnight incubation, wells were washed with PBS containing 0.05% tween. Bound SEMA3a-FC was detected using an HRP-linked anti-Human IgG (Biorad) and ECL substrate (Pierce). Alternatively, bound AP-VEGF165 was detected using CPD star substrate (Roche). The Chemiluminescent signal was acquired on a TECAN reader. Dissociation constant (KD) were determined by non-linear curve fitting using the Graph Pad prism software.

| Binder | binding result |
| --- | --- |
| NRP1 trap AF (receptor, a1a2b2c, deleted aa 281-430 and 857-923; The mature column prints 'About 22-429 and 431-856', against 1-280 and 431-856 in the column with signal peptide; Signal peptide not trimmed) FRNDKCGDTIKIESPGYLTSPGYPHSYHPSEKCEWLIQAPDPYQRIMINFNPHFDLEDRDCKYDYVEVFDGENENGHFRGKFCGKIAPPPVVSSGPFLFIKFVSDYETHGAGFSIRYELFKRGPECSQNYTTPSGVIKSPGFPEKYPNSLECTYIVFAPKMSEIILEFESFDLEPDSNPPGGMFCRYDRLEIWDGFPDVGPHIGRYCGQKTPGRIRSSSGILSMVFYTDSAIAKEGFSANYSVLQSSVSEDFKKITDYPCSGMLGMVSGLISDSQITSSNQGDRNWMPENIRLVTSRSGWALPPAPHSYINEWLQIDLGEEKIVRGIIIQGGKHRENKVFMRKFKIGYSNNGSDWKMIMDDSKRKAKSFEGNNNYDTPELRTFPALSTRFIRIYPERATHGGLGLRMELLGCEVEAPTAGPTTPNGNLVDECDDDQANCHSGTGDDFQLTGGTTVLATEKPTVIDSTIQSEFPTYGFNCEFGWGSHKTFCHWEHDNHVQLKWSVLTSKTGPIQDHTGDGNFIYSQADENQKGKVARLVSPVVYSQNSAHCMTFWYHMSGSHVGTLRVKLRYQKPEEYDQLVWMAIGHQGDHWKEGRVLLHKSLKLYQVIFEGEIGKGNLGGIAVDDISINNHISQEDCAKPADLDKKNPEIKIDETGSTPGYEGEGEGDKNISRKPGNVLKTLDPRSGSKENLYFQG | no binding |
| NRP1 trap X (receptor, a1a2-b1-c with Y297A (held in the entry); Signal peptide not trimmed) FRNDKCGDTIKIESPGYLTSPGYPHSYHPSEKCEWLIQAPDPYQRIMINFNPHFDLEDRDCKYDYVEVFDGENENGHFRGKFCGKIAPPPVVSSGPFLFIKFVSDYETHGAGFSIRYELFKRGPECSQNYTTPSGVIKSPGFPEKYPNSLECTYIVFAPKMSEIILEFESFDLEPDSNPPGGMFCRYDRLEIWDGFPDVGPHIGRYCGQKTPGRIRSSSGILSMVFYTDSAIAKEGFSANYSVLQSSVSEDFKCMEALGMESGEIHSDQITASSQASTNWSAERSRLNYPENGWTPGEDSYREWIQVDLGLLRFVTAVGTQGAISKETKKKYYVKTYKIDVSSNGEDWITIKEGNKPVLFQGNTNPTDVVVAVFPKPLITRFVRIKPATWETGISMRFEVYGCKITDYPEVEAPTAGPTTPNGNLVDECDDDQANCHSGTGDDFQLTGGTTVLATEKPTVIDSTIQSEFPTYGFNCEFGWGSHKTFCHWEHDNHVQLKWSVLTSKTGPIQDHTGDGNFIYSQADENQKGKVARLVSPVVYSQNSAHCMTFWYHMSGSHVGTLRVKLRYQKPEEYDQLVWMAIGHQGDHWKEGRVLLHKSLKLYQVIFEGEIGKGNLGGIAVDDISINNHISQEDCAKPADLDKKNPEIKIDETGSTPGYEGEGEGDKNISRKPGNVLKTLDPRSGSKENLYFQG | no binding |
